{
  "source": "patent US20200234789A1",
  "about": "“DESIGNED PROTEINS FOR LIGAND BINDING” (THE REGENTS OF THE UNIVERSITY OF CALIFORNIA, priority 2017, published 2020)",
  "assay": "Size exclusion chromatography (analytical gel filtration), oligomeric state",
  "assay_type": "physicochemical",
  "conditions": "100 μM; 50 mM NaPi, 150 mM NaCl, pH 7.0; superdex 75 5/150",
  "source_text": "FIG. 7A-7B. […] FIG. 7A: Analytical ultracentrifugation. Solutions of apo- and holo-PS1 were centrifuged at speeds ranging from 25,000 r.p.m. to 45,000 r.p.m. and monitored by absorbance at 280 nm. Parameters were globally fit to the data. Single-species fitting agrees well with the data over the entire range and yields the molecular weight of apo-PS1 […] and holo-PS1 12.24±0.91 kD, which agrees well with the 12.86 kD weight of PS1. […] Partial specific volumes were estimated from SEDNTERP^15 for amino acid side chains. FIG. 7B: Analytical gel filtration analysis of apo- and holo-PS1. Detection wavelengths are labeled as the same color as their respective curves. […] The small peak near 1.05 ml elution volume in holo-PS1 is unbound (excess), aggregated porphyrin eluting in the void volume of the superdex 75 5/150 column. Samples were run at concentrations of 100 μM and 37 μM for apo and holo, respectively, in 50 mM NaPi, 150 mM NaCl, pH 7.0 buffer.\nGel filtration profiles were obtained using a Superdex 75 5/150 column on an FPLC system (GE Healthcare AKTA). […] The approximate molecular weight (MWapp) was calculated from a standard curve obtained with the GE LMW standard protein kit. […]",
  "data": [
    {"molecule": "PS1: de novo designed porphyrin-binding four-helix bundle protein; designed sequence SEQ ID NO:1, expressed His-tag-cleaved sequence SEQ ID NO:2 (protein) SEFEKLRQTGDELVQAFQRLREIFDKGDDDSLEQVLEEIEELIQKHRQLFDNRQEAADTEAAKQGDQWVQLFQRFREAIDKGDKDSLEQLLEELEQALQKIRELAEKKN", "values": [
      {"measurement": "degree of dimerization relative to the monomer peak", "result": "< 5", "unit": "%"}
    ]}
  ]
}
